Measured values as given in US20020045208A1.

Target: bFGF receptor molecules present on the surface of the B16 cells (mouse)
Experiment: cell-based or functional assay

## bFGF-MLA/rMLB associated fusion protein (bFGF-MLA coupled to rMLB under co-folding) (from UniProt P09038 134-288)
  cytotoxic effect on B16 cells (MTT viability), IC50: 0.01 µg/mL
  improvement of the IC50 value on B16 cells against bFGF-MLA: 5 fold

## bFGF-MLA fusion protein (basic fibroblast growth factor fused to the N terminus of rMLA) (from UniProt P09038 134-288)
  cytotoxic activity on B16 cells (WST-1 viability), IC50: 0.048 µg/mL
  increase of toxicity against rMLA alone on B16 cells: > 100 fold
